Reference: patent US20190389955A1 (HEMOGENYX PHARMACEUTICALS, published 2019)
Residue numbers refer to the chain shown, from its start. Numbers in names are those of the source.

T1: human FLT3/FLK2 receptor protein (human, UniProt P36888 27-993)
T1 construct: whole, on cells; Cell-surface target in the flow cytometry experiments (REH cells and SP2/0-Hu-FLT3 cells); also called CD135; Hu-FLT3
T1 sequence (looked up): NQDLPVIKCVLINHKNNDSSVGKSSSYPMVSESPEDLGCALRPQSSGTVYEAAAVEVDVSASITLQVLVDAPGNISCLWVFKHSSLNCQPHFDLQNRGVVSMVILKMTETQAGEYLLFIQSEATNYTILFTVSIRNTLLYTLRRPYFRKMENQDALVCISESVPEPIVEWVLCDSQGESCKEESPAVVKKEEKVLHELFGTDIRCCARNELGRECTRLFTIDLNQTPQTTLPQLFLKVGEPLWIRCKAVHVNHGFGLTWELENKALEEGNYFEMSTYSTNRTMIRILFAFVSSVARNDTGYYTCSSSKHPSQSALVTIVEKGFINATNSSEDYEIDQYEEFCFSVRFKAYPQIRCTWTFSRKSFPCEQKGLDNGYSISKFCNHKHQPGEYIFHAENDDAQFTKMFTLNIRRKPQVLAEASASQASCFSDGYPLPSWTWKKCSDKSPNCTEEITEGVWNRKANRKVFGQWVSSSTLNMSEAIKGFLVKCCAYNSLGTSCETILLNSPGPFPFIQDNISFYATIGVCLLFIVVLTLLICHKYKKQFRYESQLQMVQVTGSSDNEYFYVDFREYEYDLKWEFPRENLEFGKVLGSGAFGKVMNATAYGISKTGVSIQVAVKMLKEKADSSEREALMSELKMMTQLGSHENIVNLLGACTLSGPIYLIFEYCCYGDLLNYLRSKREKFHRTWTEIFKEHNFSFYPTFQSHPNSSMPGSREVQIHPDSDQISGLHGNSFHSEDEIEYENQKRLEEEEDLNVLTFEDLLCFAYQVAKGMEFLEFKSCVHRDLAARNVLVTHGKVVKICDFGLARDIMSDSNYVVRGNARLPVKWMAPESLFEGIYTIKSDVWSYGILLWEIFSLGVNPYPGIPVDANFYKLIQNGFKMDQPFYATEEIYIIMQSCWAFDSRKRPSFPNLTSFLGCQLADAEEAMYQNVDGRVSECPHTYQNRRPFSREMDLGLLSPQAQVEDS

T2: FLT3/FLK2 antigen (as used for Table 6) (human, UniProt P36888 27-541, limits assumed)
T2 construct: also called human FLT3/FLK2 receptor protein
T2 sequence (looked up): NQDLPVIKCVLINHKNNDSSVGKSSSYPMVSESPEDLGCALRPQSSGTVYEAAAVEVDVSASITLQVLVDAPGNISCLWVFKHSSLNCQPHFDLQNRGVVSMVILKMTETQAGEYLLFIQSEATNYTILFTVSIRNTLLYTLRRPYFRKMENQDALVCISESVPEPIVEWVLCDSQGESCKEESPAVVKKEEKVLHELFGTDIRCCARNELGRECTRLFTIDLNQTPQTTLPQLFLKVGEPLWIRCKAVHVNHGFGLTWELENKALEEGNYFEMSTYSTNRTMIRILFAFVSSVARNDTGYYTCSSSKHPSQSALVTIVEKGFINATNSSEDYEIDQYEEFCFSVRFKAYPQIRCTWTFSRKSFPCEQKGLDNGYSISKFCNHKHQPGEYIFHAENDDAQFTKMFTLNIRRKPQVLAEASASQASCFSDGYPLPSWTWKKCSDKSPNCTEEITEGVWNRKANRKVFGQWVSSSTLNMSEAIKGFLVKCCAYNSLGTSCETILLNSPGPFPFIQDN

B1: MHC1694-1-18BA (antibody, V domains shown)
VH: QVTLKESGPGILQPSQTLSLTCSFSGFSLSTSTMGVGWIRQPSGKGLEWLLHILWNDSKYYNPALKSRLTISKDTYNKQVFLKIANVDTADTATYYCARIVYYSTYVGYFDVWGAGTTVTVSS
VL: DIQMTQSPSSLSASLGERVSLTCRASQEISGYLSWLQQKPDGTIKRLIYAASTLHSGVPKRFSGSRSGSDYSLTISRLESEDVADYYCLQYASYPFTFGSGTKLEIR
notes: Mouse hybridoma monoclonal antibody; also called Ab1-18New
B2: MHC1696-2-8IA (antibody, V domains shown)
VH: EIQLQQSGPELVKPGASVKVSCKASGYSFIDYNMYWVKQSHGKSLEWIGYINPYNGGTSNNQKFKDKATLTVDKSSSTAFMHLNSLTSEDSAVYYCARGTTGDYWGQGTTLTVSS
VL: DTVLTQSPATLSVTPGDSVSLSCRASQSISNNLHWYQQKSHESPRLLIKYGFQSISGIPSRFSGSGSGTDFTLRINSVETEDFGMYFCQQTNSWPLTFGAGTKLELK
notes: Mouse hybridoma monoclonal antibody; also called A281A
B3: MHC1695-3-30A (antibody, V domains shown)
VH: QVTLKESGPGILQPSQTLSLTCSFSGFSLSTSHMGVGWIRQPSGKGLEWLLHILWNDSVYYNPALKSRLTISKDTYNKQVFLKIANVDTADTATYYCARIVYYGISYVGYFDVWGAGTTVTVSS
VL: B1 VL with H55N, K60R, R77S, V83F, R107K
notes: Mouse hybridoma monoclonal antibody
B4: MHC1692-1-23DA (antibody, V domains shown)
VH: B1 VH
VL: B1 VL
notes: Mouse hybridoma monoclonal antibody (detected with anti-mouse IgG); also called Ab1-23DA
B5: MHC1693-3-16HA (antibody, V domains shown)
VH: EVQLQQSGAELVRPGALVKLSCKGSGFNIKDYYIHWVKQRPEQGLEWIGRIDPENDITMYDPKFQGKASITADTSSNTAYLQLSSLTSEDTAVYYCARNGNFFAYWGQGTLVTVSA
VL: not shown
notes: Mouse hybridoma monoclonal antibody; also called Ab3-16HA

target: T1, human FLT3/FLK2 receptor protein; assay: flow cytometry titration on REH cells, MFI against antibody concentration; the box prints no unit, the axis is printed 'mg/ml', the text gives ng/ml; clone taken from the legend paragraph 65 (FIG. 5E: Ab1-18New)
Description: (§1) Specificity of the monoclonal antibodies was determined by evaluating their affinity to the FLT3/FLK2 antigen. To define affinity of the anti-human FLT3/FLK2 antibodies, an Effective Concentration (EC) curve was built using flow cytometry. Nine monoclonal antibody clones were used to stain human REH cells that endogenously express human FLT3/FLK2. The concentration of the clones ranged from 1 ng/ml (6.25 pM) to 10,000 ng/ml (62.5 nM). […] The sequences of the clones are shown below.

| EC50 | Binder |
| --- | --- |
| 0.0788 µg/mL | B1 |

target: T1, human FLT3/FLK2 receptor protein; assay: flow cytometry, hybridoma supernatant on REH cells; same table: unstained 1292, secondary Ab alone 6905 (0.78%), isotype 13307 (12%)

| % POSITIVE CELLS | MFI (IgC FITC) | Binder |
| --- | --- | --- |
| 30% | 11000 | B2 |
| 48% | 13000 | B3 |
| 49% | 13300 | B4 |
| 58% | 14700 | B1 |
| 57% | 15200 | B5 |

target: T2, FLT3/FLK2 antigen (as used for Table 6); assay: kinetic fit, method not stated (Table 6)

| Kd | koff | kon | Binder |
| --- | --- | --- | --- |
| 0.0503 nM | 0.000111 s⁻¹ | 2.21e+06 M⁻¹ s⁻¹ | B2 |
| 0.00576 nM | 1.42e-05 s⁻¹ | 2.46e+06 M⁻¹ s⁻¹ | B1 |

target: T1, human FLT3/FLK2 receptor protein; assay: flow cytometry, purified antibody on SP2/0 cells expressing human FLT3/FLK2; same table: unstained 6063, secondary Ab 9522, isotype 11518

| MFI | Binder |
| --- | --- |
| 128000 | B2 |
| 151000 | B3 |
| 119000 | B4 |
| 206000 | B5 |

target: T1, human FLT3/FLK2 receptor protein; assay: flow cytometry titration on REH cells, MFI against antibody concentration; the box prints no unit, the axis is printed 'mg/ml', the text gives ng/ml
Description: as §1

| EC50 | Binder |
| --- | --- |
| 0.0902 µg/mL | B2 |
| 0.0701 µg/mL | B4 |

target: T1, human FLT3/FLK2 receptor protein; assay: flow cytometry titration on REH cells; axis printed 'mg/ml', the text gives ng/ml
Description: as §1

| EC50 (read off the curve) | Binder |
| --- | --- |
| ~100 ng/mL | B2 |
| ~1000 ng/mL | B3 |
| ~60 ng/mL | B4 |
| ~80 ng/mL | B1 |
